From paper PMC5793090 (Toxins, 2017)
Several values for one entry are separate records, joined by “and”; a condition that tells them apart may be missing. Equal entries are not always repeated.

T1: GST-CNF1 (full-length Cytotoxic Necrotizing Factor 1 of Escherichia coli as GST fusion) (Escherichia coli, UniProt Q47106 1-1014, DyLight488 Maleimide label in the flow cytometry experiments only)
T1 chain: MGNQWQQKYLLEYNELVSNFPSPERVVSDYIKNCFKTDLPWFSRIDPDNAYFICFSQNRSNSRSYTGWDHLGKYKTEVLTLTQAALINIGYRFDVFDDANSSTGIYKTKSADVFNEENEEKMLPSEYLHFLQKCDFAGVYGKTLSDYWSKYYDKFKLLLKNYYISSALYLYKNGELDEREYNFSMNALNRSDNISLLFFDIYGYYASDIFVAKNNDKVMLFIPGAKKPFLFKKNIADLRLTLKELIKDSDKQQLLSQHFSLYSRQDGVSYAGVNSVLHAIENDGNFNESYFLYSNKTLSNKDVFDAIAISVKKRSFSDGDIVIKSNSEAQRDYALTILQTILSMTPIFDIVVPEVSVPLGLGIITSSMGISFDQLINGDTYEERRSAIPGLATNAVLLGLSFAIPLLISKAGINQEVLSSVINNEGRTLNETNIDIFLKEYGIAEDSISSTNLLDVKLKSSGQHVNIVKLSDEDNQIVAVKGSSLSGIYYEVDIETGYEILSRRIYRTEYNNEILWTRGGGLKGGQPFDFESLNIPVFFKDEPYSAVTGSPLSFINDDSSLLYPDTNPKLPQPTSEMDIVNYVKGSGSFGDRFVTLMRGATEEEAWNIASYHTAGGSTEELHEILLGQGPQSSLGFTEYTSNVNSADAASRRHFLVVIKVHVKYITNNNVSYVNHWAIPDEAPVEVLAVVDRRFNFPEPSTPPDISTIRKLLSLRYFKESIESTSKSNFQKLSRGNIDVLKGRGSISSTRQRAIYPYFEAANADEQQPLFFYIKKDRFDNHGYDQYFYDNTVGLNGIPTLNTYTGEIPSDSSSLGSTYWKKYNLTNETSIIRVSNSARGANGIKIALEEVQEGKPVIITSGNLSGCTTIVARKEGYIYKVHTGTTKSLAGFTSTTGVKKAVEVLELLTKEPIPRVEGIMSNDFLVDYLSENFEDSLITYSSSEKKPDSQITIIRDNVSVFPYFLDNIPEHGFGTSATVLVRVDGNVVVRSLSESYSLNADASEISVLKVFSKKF

T2: GST-CNF1 (full-length Cytotoxic Necrotizing Factor 1 of Escherichia coli as GST fusion) (Escherichia coli, UniProt Q47106 1-1014, DyLight488 Maleimide label in the flow cytometry experiments only)
T2 construct: also called full-length CNF1; full toxin
T2 sequence: T1 chain

B1: Lu12-Fc (Fc fusion)
chain: EVRLSVPPLVEVMRGKSVILDCTPTGTHDHYMLEWFLTDRSGARPRLASAEMQGSELQVTMHDTRGRSPPYQLDSQGRLVLAEAQVGDERDYVCVVRAGAAGTAEATARLNVFAKPEATEVSPNKGTLSVMEDSAQEIATCNSRNGNPAPKITWYRNGQRLEVPVEMNPEGYMTSRTVREASGLLSLTSTLYLRLRKDDRDASFHCAAHYSLPEGRHGRLDSPTFH
B2: CNF1 (720–1014), GST-tag removed (domain or fragment)
chain: SIESTSKSNFQKLSRGNIDVLKGRGSISSTRQRAIYPYFEAANADEQQPLFFYIKKDRFDNHGYDQYFYDNTVGLNGIPTLNTYTGEIPSDSSSLGSTYWKKYNLTNETSIIRVSNSARGANGIKIALEEVQEGKPVIITSGNLSGCTTIVARKEGYIYKVHTGTTKSLAGFTSTTGVKKAVEVLELLTKEPIPRVEGIMSNDFLVDYLSENFEDSLITYSSSEKKPDSQITIIRDNVSVFPYFLDNIPEHGFGTSATVLVRVDGNVVVRSLSESYSLNADASEISVLKVFSKKF
notes: also called CNF1 catalytic unit
B3: Recombinant human extracellular rLu/BCAM with Fc-tag (Fc fusion)
chain: EVRLSVPPLVEVMRGKSVILDCTPTGTHDHYMLEWFLTDRSGARPRLASAEMQGSELQVTMHDTRGRSPPYQLDSQGRLVLAEAQVGDERDYVCVVRAGAAGTAEATARLNVFAKPEATEVSPNKGTLSVMEDSAQEIATCNSRNGNPAPKITWYRNGQRLEVPVEMNPEGYMTSRTVREASGLLSLTSTLYLRLRKDDRDASFHCAAHYSLPEGRHGRLDSPTFHLTLHYPTEHVQFWVGSPSTPAGWVREGDTVQLLCRGDGSPSPEYTLFRLQDEQEEVLNVNLEGNLTLEGVTRGQSGTYGCRVEDYDAADDVQLSKTLELRVAYLDPLELSEGKVLSLPLNSSAVVNCSVHGLPTPALRWTKDSTPLGDGPMLSLSSITFDSNGTYVCEASLPTVPVLSRTQNFTLLVQGSPELKTAEIEPKADGSWREGDEVTLICSARGHPDPKLSWSQLGGSPAEPIPGRQGWVSSSLTLKVTSALSRDGISCEASNPHGNKRHVFHFGTVSPQTSQA
notes: also called rLu/BCAM-Fc; recombinant Lu/BCAM; source: bought: Hölzel Diagnostika Handels GmbH

Key:
Lu12-Fc = assay: SPR
[1] = target: T1, GST-CNF1 (full-length Cytotoxic …); assay: SPR
[2] = target: B3; assay: SEC; conditions: both partners purified
[3] = target: B3; assay: small-angle X-ray scattering (SAXS); conditions: both partners purified
SEC = target: the molecule itself; assay: SEC
[4] = target: T2, GST-CNF1 (full-length Cytotoxic …); assay: far-Western, overlay or dot blot; CNF proteins spotted on a nitrocellulose membrane, incubated with 5 µM rLu/BCAM in TBST for 30 min, then blocked with 5% milk; bound rLu/BCAM detected with an anti-Lu/BCAM antibody; conditions: both partners purified

**Q.** Which Kd (Lu12-Fc) does the source give for “GST-CNF1 (full-length Cytotoxic Necrotizing Factor 1 of Escherichia coli as GST fusion) (from UniProt Q47106 1-1014) (natural protein)” here?
**A.** Its Kd is 2 nM.

**Q.** For B1, which koff [1] is on record?
**A.** The koff was 3e-05 s⁻¹.

**Q.** With B2 as the molecule, how does the “stoichiometry N” value [2] read?
**A.** The value was 6 Lu/BCAM per CNF1.

**Q.** What about the “stoichiometry N” value [3] of the same molecule?
**A.** Its value is 1 CNF1 molecules per rLu/BCAM assembly and 2 CNF1 molecules per rLu/BCAM assembly.

**Q.** B3 was tested. Which “stoichiometry N” value (SEC) did it give?
**A.** The value was 6.

**Q.** Does B3 bind [4]?
**A.** Result: binds
